Measured values reported in patent publication US20250215104A1 (WALDEN BIOSCIENCES, published 2025).

B1: suPAR_DB04_D09 (scFv, V domains shown)
VH: QVQLVQSGAEVKKPGASVKVSCKASGYTFTAYYMHWVRQAPGQGLEWMGWIDHENGNTIYDQKFQGRVTMTRDTSTSTVYMELSSLRSEDTAVYYCARGYDVDWFVYWGQGTLVTVSS
VL: DIQMTQSPSSLSASVGDRVTITCSARSSVSYMYWYQQKPGKAPKLLIYRTSNLASGVPSRFSGSGSGTDFTLTISSLQPEDFATYYCQQYHSYPPTFGGGTKVEIK
notes: scFv clone from phage display
B2: suPAR_DB04_E06 (scFv, V domains shown)
VH: QVQLVQSGAEVKKPGASVKVSCKASGYSFTSHYMHWVRQAPGQGLEWMGWIDHENGNTIYDQKFQGRVTMTRDTSTSTVYMELSSLRSEDTAVYYCARGYDVDWFVYWGQGTLVTVSS
VL: DIQMTQSPSSLSASVGDRVTITCRARSSVSYMYWYQQKPGKAPKLLIYRTSNLASGVPSRFSGSGSGTDFTLTISSLQPEDFATYYCQQYHSYPPTFGGGTKVEIK
notes: scFv clone from phage display
B3: suPAR_DB04_E07 (scFv, V domains shown)
VH: QVQLVQSGAEVKKPGASVKVSCKASGDTFTSYYIHWVRQAPGQGLEWMGWIDHENGNTIYDQKFQGRVTMTRDTSTSTVYMELSSLRSEDTAVYYCARGYDVDWFVYWGQGTLVTVSS
VL: DIQMTQSPSSLSASVGDRVTITCSARSSVSYMYWYQQKPGKAPKLLIYRTSNLASGVPSRFSGSGSGTDFTLTISSLQPEDFATYYCQQYHSYPPTFGGGTKVEIK
notes: scFv clone from phage display
B4: suPAR_DB04_D04 (scFv, V domains shown)
VH: QVQLVQSGAEVKKPGASVKVSCKASGYTIKDYYMHWVRQAPGQGLEWMGWIDHENGSTIYAQKFQGRVTMTRDTSTSTVYMELSSLRSEDTAVYYCARGYDVDWFVYWGQGTLVTVSS
VL: DIQMTQSPSSLSASVGDRVTITCSARSSVSYMYWYQQKPGKAPKLLIYRTSNLASGVPSRFSGSGSGTDFTLTISSLQPEDFATYYCQQYHSYPPTFGGGTKVEIK
notes: scFv clone from phage display
B5: suPAR_DB04_D08 (scFv, V domains shown)
VH: QVQLVQSGAEVKKPGASVKVSCKASGYTLSGYYMHWVRQAPGQGLEWMGWIDPNSGATNDAPKFQGRVTMTRDTSTSTVYMELSSLRSEDTAVYYCARGYDVDWFVYWGQGTLVTVSS
VL: DIQMTQSPSSLSASVGDRVTITCSARSSVSYMYWYQQKPGKAPKLLIYRTSNLASGVPSRFSGSGSGTDFTLTISSLQPEDFATYYCQQYHSYPPTFGGGTKVEIK
notes: scFv clone from phage display
B6: suPAR_DB04_C04 (scFv, V domains shown)
VH: QVQLVQSGAEVKKPGASVKVSCKASGYTFTGYYMHWVRQAPGQGLEWMGWIDHENGNTSYDQKFQGRVTMTRDTSTSTVYMELSSLRSEDTAVYYCARGYDVDWFVYWGQGTLVTVSS
VL: DIQMTQSPSSLSASVGDRVTITCSASQSVSYMYWYQQKPGKAPKLLIYRTSNLASGVPSRFSGSGSGTDFTLTISSLQPEDFATYYCQQYHSYPPTFGGGTKVEIK
notes: scFv clone from phage display
B7: suPAR_DB04_C11 (scFv, V domains shown)
VH: QVQLVQSGAEVKKPGASVKVSCKASGYSFTDYYMHWVRQAPGQGLEWMGWIDPENGSTIYDQKFQGRVTMTRDTSTSTVYMELSSLRSEDTAVYYCARGYDVDWFVYWGQGTLVTVSS
VL: DIQMTQSPSSLSASVGDRVTITCSARSSVSYMYWYQQKPGKAPKLLIYRTSNLASGVPSRFSGSGSGTDFTLTISSLQPEDFATYYCQQYHSYPPTFGGGTKVEIK
notes: scFv clone from phage display
B8: suPAR_DB04_C03 (scFv, V domains shown)
VH: QVQLVQSGAEVKKPGASVKVSCKASGYTFTSYYMHWVRQAPGQGLEWMGWIDPENGSTIYDQKFQGRVTMTRDTSTSTVYMELSSLRSEDTAVYYCASGYDVDWFVYWGQGTLVTVSS
VL: DIQMTQSPSSLSASVGDRVTITCSARSSVSYMYWYQQKPGKAPKLLIYRTSNLASGVPSRFSGSGSGTDFTLTISSLQPEDFATYYCQQYHSYPPTFGGGTKVEIK
notes: scFv clone from phage display
B9: suPAR_DB04_E08 (scFv, V domains shown)
VH: QVQLVQSGAEVKKPGASVKVSCKASGYTFTGYYMHWVRQAPGQGLEWMGWIDHENGNTSYAQKFQGRVTMTRDTSTSTVYMELSSLRSEDTAVYYCARGYDVDWFVYWGQGTLVTVSS
VL: DIQMTQSPSSLSASVGDRVTITCSARSSVSYMYWYQQKPGKAPKLLIYRTSNLASGVPSRFSGSGSGTDFTLTISSLQPEDFATYYCQQYHSYPPTFGGGTKVEIK
notes: scFv clone from phage display
B10: suPAR_DB04_C07 (scFv, V domains shown)
VH: QVQLVQSGAEVKKPGASVKVSCKASGYTFTSYYMHWVRQAPGQGLEWMGWIDHSNGNTIYDQKFQGRVTMTRDTSTSTVYMELSSLRSEDTAVYYCARGDDVDWFVYWGQGTLVTVSS
VL: DIQMTQSPSSLSASVGDRVTITCSARSSVSYMYWYQQKPGKAPKLLIYRTSNLASGVPSRFSGSGSGTDFTLTISSLQPEDFATYYCQQYHSYPPTFGGGTKVEIK
notes: scFv clone from phage display
B11: suPAR_DB04_C06 (scFv, V domains shown)
VH: QVQLVQSGAEVKKPGASVKVSCKASGYTFSAYYIHWVRQAPGQGLEWMGWIDHENGNTIYDQKFQGRVTMTRDTSTSTVYMELSSLRSEDTAVYYCARGNDVDWFVYWGQGTLVTVSS
VL: DIQMTQSPSSLSASVGDRVTITCSARQSVSYMYWYQQKPGKAPKLLIYRTSNLQSGVPSRFSGSGSGTDFTLTISSLQPEDFATYYCQQYHSYPPTFGGGTKVEIK
notes: scFv clone from phage display
B12: suPAR_DB04_E03 (scFv, V domains shown)
VH: QVQLVQSGAEVKKPGASVKVSCKASGYTFTNYYMHWVRQAPGQGLEWMGWIDHEGGSTIYAQKFQGRVTMTRDTSTSTVYMELSSLRSEDTAVYYCARGYDVDWFVYWGQGTLVTVSS
VL: DIQMTQSPSSLSASVGDRVTITCSARSSVSYMYWYQQKPGKAPKLLIYRTSNLASGVPSRFSGSGSGTDFTLTISSLQPEDFATYYCQQYHSYPPTFGGGTKVEIK
notes: scFv clone from phage display
B13: suPAR_DB04_C02 (scFv, V domains shown)
VH: QVQLVQSGAEVKKPGASVKVSCKASGNTFIGYYVHWVRQAPGQGLEWMGWIDHENGNTSYDQKFQGRVTMTRDTSTSTVYMELSSLRSEDTAVYYCARGNDVDWFVYWGQGTLVTVSS
VL: DIQMTQSPSSLSASVGDRVTITCSARSSVSYMYWYQQKPGKAPKLLIYRTSNLASGVPSRFSGSGSGTDFTLTISSLQPEDFATYYCQQYHSYPPTFGGGTKVEIK
notes: scFv clone from phage display
B14: suPAR_DB04_D03 (scFv, V domains shown)
VH: QVQLVQSGAEVKKPGASVKVSCKASGYTFTSYYMHWVRQAPGQGLEWMGWIDPENGSTIYDQKFQGRVTMTRDTSTSTVYMELSSLRSEDTAVYYCARGYDVDWFVYWGQGTLVTVSS
VL: DIQMTQSPSSLSASVGDRVTITCRARQSVSYMYWYQQKPGKAPKLLIYRTSNLASGVPSRFSGSGSGTDFTLTISSLQPEDFATYYCQQYHSYPPTFGGGTKVEIK
notes: scFv clone from phage display
B15: suPAR_DB04_E04 (scFv, V domains shown)
VH: QVQLVQSGAEVKKPGASVKVSCKASGYTFTSYYVHWVRQAPGQGLEWMGWIDHENGNTIYDQKFQGRVTMTRDTSTSTVYMELSSLRSEDTAVYYCARGTDVDWFVYWGQGTLVTVSS
VL: DIQMTQSPSSLSASVGDRVTITCRARQSVSYMYWYQQKPGKAPKLLIYRTSNLASGVPSRFSGSGSGTDFTLTISSLQPEDFATYYCQQYHSYPPTFGGGTKVEIK
notes: scFv clone from phage display
B16: suPAR_DB04_D07 (scFv, V domains shown)
VH: QVQLVQSGAEVKKPGASVKVSCKASGYTFGSYYMHWVRQAPGQGLEWMGWIDHENGNTIYDQKFQGRVTMTRDTSTSTVYMELSSLRSEDTAVYYCARGYDVDWFVYWGQGTLVTVSS
VL: DIQMTQSPSSLSASVGDRVTITCRARQSVSYMYWYQQKPGKAPKLLIYRTSNLASGVPSRFSGSGSGTDFTLTISSLQPEDFATYYCQQYHSYPPTFGGGTKVEIK
notes: scFv clone from phage display
B17: suPAR_DB04_C12 (scFv, V domains shown)
VH: QVQLVQSGAEVKKPGASVKVSCKASGHTITSYYMHWVRQAPGQGLEWMGWIDHENGSTIYAQKFQGRVTMTRDTSTSTVYMELSSLRSEDTAVYYCARGYDVDWFVYWGQGTLVTVSS
VL: DIQMTQSPSSLSASVGDRVTITCRASSSVSYMYWYQQKPGKAPKLLIYRTSNLASGVPSRFSGSGSGTDFTLTISSLQPEDFATYYCQQYHSYPPTFGGGTKVEIK
notes: scFv clone from phage display
B18: suPAR_DB04_D10 (scFv, V domains shown)
VH: QVQLVQSGAEVKKPGASVKVSCKASGYTFTSYYMHWVRQAPGQGLEWMGWIDPEGGNTSYDQKFQGRVTMTRDTSTSTVYMELSSLRSEDTAVYYCATGYDVDWFVYWGQGTLVTVSS
VL: DIQMTQSPSSLSASVGDRVTITCSARSSVSYMYWYQQKPGKAPKLLIYRTSNLASGVPSRFSGSGSGTDFTLTISSLQPEDFATYYCQQYHSYPPTFGGGTKVEIK
notes: scFv clone from phage display
B19: suPAR_DB04_C05 (scFv, V domains shown)
VH: QVQLVQSGAEVKKPGASVKVSCKASGHTLNSYYMHWVRQAPGQGLEWMGWIDHENGNTIYDQKFQGRVTMTRDTSTSTVYMELSSLRSEDTAVYYCARGYDVDWFVYWGQGTLVTVSS
VL: DIQMTQSPSSLSASVGDRVTITCSARSSVSYMYWYQQKPGKAPKLLIYRTSNLASGVPSRFSGSGSGTDFTLTISSLQPEDFATYYCQQYHSYPPTFGGGTKVEIK
notes: scFv clone from phage display
B20: suPAR_DB04_D05 (scFv, V domains shown)
VH: QVQLVQSGAEVKKPGASVKVSCKASGYTFTTYYMHWVRQAPGQGLEWVGWIDPHSGGTNYAQKFQGRVTMTRDTSTSTVYMELSSLRSEDTAVYYCARGYDVDWFVYWGQGTLVTVSS
VL: DIQMTQSPSSLSASVGDRVTITCSARSSVSYMYWYQQKPGKAPKLLIYRTSNLASGVPSRFSGSGSGTDFTLTISSLQPEDFATYYCQQYHSYPPTFGGGTKVEIK
notes: scFv clone from phage display
B21: suPAR_DB04_C09 (scFv, V domains shown)
VH: QVQLVQSGAEVKKPGASVKVSCKASGYTFSTYYMQWVRQAPGQGLEWMGWIDPENGSTIYDQKFQGRVTMTRDTSTSTVYMELSSLRSEDTAVYYCARGYDVDWFVYWGQGTLVTVSS
VL: DIQMTQSPSSLSASVGDRVTITCSARSSVSYMYWYQQKPGKAPKLLIYRASNLASGVPSRFSGSGSGTDFTLTISSLQPEDFATYYCQQYHSYPPTFGGGTKVEIK
notes: scFv clone from phage display

Tests used:
[1] = molecular target: T1, human soluble urokinase plasminogen activator receptor (hsuPAR) (human, UniProt Q03405 23-303, limits assumed); test: off-rate screen of scFv clones (kdis), Octet BLI
T1 construct: also called human suPAR; rhuPAR-His
T1 sequence (Q03405 23-303 limits assumed): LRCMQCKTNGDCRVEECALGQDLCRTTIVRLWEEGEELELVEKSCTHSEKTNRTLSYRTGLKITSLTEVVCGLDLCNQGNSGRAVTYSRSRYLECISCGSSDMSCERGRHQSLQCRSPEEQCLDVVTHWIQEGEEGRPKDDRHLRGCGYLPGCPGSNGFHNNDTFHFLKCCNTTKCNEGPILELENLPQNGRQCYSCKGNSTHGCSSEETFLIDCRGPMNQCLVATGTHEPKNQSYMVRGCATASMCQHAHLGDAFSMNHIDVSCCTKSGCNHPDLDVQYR

[2] = molecular target: T2, cynomolgus soluble urokinase plasminogen activator receptor (cynomolgus suPAR) (cynomolgus, UniProt Q9GK78 23-303, limits assumed); test: off-rate screen of scFv clones (kdis), Octet BLI
T2 construct: also called cynomolgus uPAR; cynoPLAUR-His
T2 sequence (Q9GK78 23-303 limits assumed): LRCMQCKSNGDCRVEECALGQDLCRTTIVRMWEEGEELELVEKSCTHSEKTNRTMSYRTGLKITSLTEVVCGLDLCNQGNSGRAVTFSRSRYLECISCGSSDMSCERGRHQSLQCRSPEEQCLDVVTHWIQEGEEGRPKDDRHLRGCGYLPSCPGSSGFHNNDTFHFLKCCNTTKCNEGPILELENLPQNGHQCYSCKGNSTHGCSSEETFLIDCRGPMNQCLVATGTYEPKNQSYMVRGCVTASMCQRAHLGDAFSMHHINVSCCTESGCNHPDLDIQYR

Binder | koff [1] | koff [2]
B1 | 0.00203 s⁻¹ | 0.000206 s⁻¹
B2 | 0.00564 s⁻¹ | 0.000137 s⁻¹
B3 | 0.00311 s⁻¹ | 0.00023 s⁻¹
B4 | 0.00188 s⁻¹ | 0.000184 s⁻¹
B5 | 0.00414 s⁻¹ | 0.000343 s⁻¹
B6 | 0.00229 s⁻¹ | 0.000384 s⁻¹
B7 | 0.00562 s⁻¹ | 0.000483 s⁻¹
B8 | 0.00368 s⁻¹ | 0.000158 s⁻¹
B9 | 0.00268 s⁻¹ | 0.000149 s⁻¹
B10 | 0.0031 s⁻¹ | 0.000249 s⁻¹
B11 | 0.00412 s⁻¹ | 4.14e-05 s⁻¹
B12 | 0.00116 s⁻¹ | 0.000224 s⁻¹
B13 | 0.00411 s⁻¹ | 0.000146 s⁻¹
B14 | 0.00408 s⁻¹ | 0.000353 s⁻¹
B15 | 0.00335 s⁻¹ | 0.000451 s⁻¹
B16 | 0.00217 s⁻¹ | 0.000436 s⁻¹
B17 | 0.000626 s⁻¹ | 0.000255 s⁻¹
B18 | 0.005 s⁻¹ | 0.000402 s⁻¹
B19 | 0.00245 s⁻¹ | 0.000421 s⁻¹
B20 | 0.004 s⁻¹ | 5.44e-05 s⁻¹
B21 | 0.0013 s⁻¹ | 0.00154 s⁻¹
